Measured values reported in paper PMC9010756.

Target: GST-CGN(1–70) (GST-tagged cCGN, 1–70 amino acids) (canis (dog))
Experiment: pull-down

GST-CGN(1–70) (GST-tagged cCGN, 1–70 amino acids) (canis (dog)), sequence (A7YH32 1-70): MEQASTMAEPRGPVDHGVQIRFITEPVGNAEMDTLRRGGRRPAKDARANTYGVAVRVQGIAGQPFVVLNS

GFP-hZO-1-Cter (1619–1748) (from UniProt Q07157 1619-1748) (domain or fragment)
fold stronger binding than larger fragments: > 4 fold
